# B1: Doublecortin-like kinase 1 (DCLK1) kinase domain (domain or fragment, UniProt O15075 372-649, looked up)
# chain: GEEVSEEGFQIPATITERYKVGRTIGDGNFAVVKECVERSTAREYALKIIKKSKCRGKEHMIQNEVSILRRVKHPNIVLLIEEMDVPTELYLVMELVKGGDLFDAITSTNKYTERDASGMLYNLASAIKYLHSLNIVHRDIKPENLLVYEHQDGSKSLKLGDFGLATIVDGPLYTVCGTPTYVAPEIIAETGYGLKVDIWAAGVITYILLCGFPPFRGSGDDQEVLFDQILMGQVDFPSPYWDNVSDSAKELITMMLLVDVDQRFSAVQVLEHPWVND
# notes: Doublecortin-like kinase 1 (DCLK1), kinase domain, residues Gly372-Asp649; residues 376-648 are resolved in the structure; Non-phosphorylated; Crystallised with AMP-PNP, then soaked with ruxolitinib; Two molecules per asymmetric unit form the dimer; also called DCLK1KD; source: E. coli Rosetta2(DE3)pLysS, purified (Ni-NTA, TEV cleavage, SEC); not shown: His6, N-terminal, cleaved
# Target: the molecule itself
# Experiment: crystal structure; sitting-drop vapor diffusion at 23 °C; co-crystallised with AMP-PNP, then soaked with ruxolitinib; two molecules per asymmetric unit; interface analysed with the PISA server
protein,measurement,value
B1,stoichiometry N,2

# Reference: article PMC8395186, “Structural Basis of Inhibition of DCLK1 by Ruxolitinib” (International Journal of Molecular Sciences, 2021)
